# Source: US20070172470A1, “Phosphatase regulation of nucleic acid transcription” (The Regents of the University of California, priority 2003, published 2007)
# Tests used:
# [1] = tested on: rat insulin 1 promoter-luciferase reporter gene; assay: Rat insulin promoter-luciferase assay with LMX1 and E47; format: cell-based; conditions: LMX1 and E47 co-expressed
# Source text: (§1) Gal4-DNA binding domain-SCP1 fusion protein expression plasmids-were cotransfected in HEK293 cells with a Gal 4-TKLuc reporter plasmid and luciferase gene expression quantitated. In all panels, results of triplicate transfections are shown +/− SD. Data is expressed as fold-activation experimental/control). […] The indicated amounts of SCP1 or mutant SCP1 expression plasmids were cotransfected in HEK293 cells along with Gal 4-VP16 expression and Gal 4-TK-Luc reporter plasmids and luciferase activity was quantitated. […] The indicated receptor expression plasmids were cotransfected with their cognate promoter-reporter plasmids with or without SCP1 or mutant SCP1 expression plasmids. Cells were treated or untreated with receptor-specific ligands as described infra. […] The indicated concentrations of SCP1 and mutant SCP1 expression plasmids were cotransfected with LMX1 and E47 expression plasmids and the rat insulin 1 promoter-luciferase reporter gene. Luciferase activity was measured as described.
# (§2) Tissue Culture and Transfections: Human 293, COS7 and CV1 cells were grown at 37° C. in DMEM supplemented with 10% normal calf serum (BRL). Sub-confluent cells were transfected in 6 well tissue culture dishes using Effectene (Qiagen) according to the manufacturer's instructions. Reporter and activator plasmids (100 ng each) and Flag SCP1 (80 ng) or its mutant were used per well. […]
# [2] = tested on: PPARγ receptor activity on PPARγ promoter response element; assay: Luciferase reporter assay, ligand-activated PPARγ receptor; format: cell-based, human
# Source text: as §1, §2
# [3] = tested on: Gal 4-TK-Luc reporter stimulated by Gal 4-VP16; assay: Luciferase reporter assay, Gal 4-VP16 stimulated gene expression; format: cell-based, human; conditions: HEK293 cells
# Source text: as §1, §2
# [4] = format: biochemical; conditions: PNθP as substrate
# [5] = tested on: glucocorticoid receptor activity on GRE-TK-Luc construct; assay: Luciferase reporter assay, dexamethasone-stimulated glucocorticoid receptor; format: cell-based, human; conditions: 100 nM dexamethasone
# Source text: as §1, §2
# [6] = tested on: T3 receptor activity on DR+4 TRE-TK-Luc reporter; assay: Luciferase reporter assay, ligand-activated T3 receptor; format: cell-based, human; conditions: 100 nM T3, DR+4 TRE-TK-Luc
# Source text: as §1, §2
# [7] = tested on: P19 mouse embryonic stem cells; assay: Neuronal differentiation of P19 cells; format: cell-based; conditions: clonal P19 line, retinoic acid, selective medium
# Procedure: P19 cells, C, differentiated GFP expressing P19 cells; D, differentiated SCP1-expressing P19 cells; F, differentiated REST/NRSF-expressing P19 cells. Numbers of NLC per field are shown. *p=0.001 compared to WT 19 cells; **p=0.008 compared to WT P19 cell using student's t-test.
# P19 stably expressing REST/NRSF.
# These cell lines were maintained in α-MEM/10%FBS with […] G418. To induce neuronal differentiation, P19 cells were allowed to aggregate in bacterial grade petri-dishes (Fisher) at a seeding density of 1×10^5cells/ml in the presence of 1×10^−6M all-trans retinoic acid. After 3 days of aggregation, cells were dissociated into single cells by 0.05% trypsin-0.53 mM EDTA (Gibco). Trypsin was removed by centrifugation and the cells were plated in 6 cm tissue culture dishes (Nunc). at a density of 1×10^5 cells/cm^2 in Neurobasal medium/N2 supplement (Invitrogen) in the presence or absence of 1 μg/ml fibronectin (Invitrogen). The cells were cultured for 5 days after which average cell numbers/field were determined. Cells were either lysed to prepare total RNA (Rneasy kit, Qiagen) or stained with TuJ1 antibody (Babco).
# For immunostaining, cells were fixed for 10 mins with 4% paraformaldehyde. TuJ1 antibody was used at 1:2000 and secondary antibody used was FITC-conjuagated anti-mouse (1:3000).
# [8] = tested on: 28 aa CTD heptad repeat peptide with Ser 5 phosphate or Ser 2 phosphate; assay: CTD phosphopeptide phosphatase assay (malachite green); format: biochemical; conditions: 25 μM phosphopeptide, 60 mins at 37° C.
# Procedure: The indicated amounts of. SCP1 were incubated with the phosphopeptide substrate and phosphate released was measured as described infra.
# N-terminal biotinylated CTD phosphopeptides, comprised of 4 tandem repeats YSPTSPS and containing phosphoserine at position 2 or position 5, were synthesized (Alpha Diagnostics, San Antonio, Tex.). Phosphatase reaction mixtures (50 μl) containing 50 mM Tris-acetate, pH 5.5, 10 mM MgCl2, 0.5 mM DTT, 10% glycerol, 25 μM of phosphopeptide and wild type or mutant SCP1 were incubated for 60 mins at 37° C. The reactions were quenched by adding 0.5 ml of malachite green (Biomol). Phosphate release was measured at A620 and quantified relative to a phosphate standard curve.
molecule,measurement,setting,value
"SCP1: small CTD phosphatase-1, full-length 261 aa human protein, SEQ ID NO:2 (protein, listed as Homo sapiens) MDSSAVITQISKEEARGPLRGKGDQKSAASQKPRSRGILHSLFCCVCRDDGEALPAHSGAPLLVEENGAIPKTPVQYLLPEAKAQDSDKICVVIDLDETLVHSSFKPVNNADFIIPVEIDGVVHQVYVLKRPHVDEFLQRMGELFECVLFTASLAKYADPVADLLDKWGAFRARLFRESCVFHRGNYVKDLSRLGRDLRRVLILDNSPASYVFHPDNAVPVASWFDNMSDTELHDLLPFFEQLSRVDDVYSVLRQPRPGS",inhibition of luciferase expression,[1]; 40 ng SCP1 plasmid alone,> 90%
same,inhibition of luciferase expression,[1]; 40 ng SCP1 plasmid plus 20 ng mutant SCP1 plasmid,~20%
same,ligand-activated PPARγ receptor activity,[2],inhibited
same,Gal 4-VP16 stimulated luciferase activity,[3],strongly inhibited
same,pH optimum for SCP1 phosphatase activity,[4]; GST-fusion,~5
same,divalent metal ion requirement of phosphatase activity,[4]; Ca2+ could not substitute,Mg^2+-dependent
same,dexamethasone-stimulated glucocorticoid receptor activity,[5],inhibited
same,ligand-activated T3 receptor activity,[6],inhibited
same,effect on neuronal differentiation,[7],did not affect the extent of neuronal differentiation
same,dephosphorylation of Ser 5 versus Ser 2 phosphopeptide,[8],preferentially dephosphorylates the Ser 5 phosphopeptide
